Source: the domain aggregation screens of Martell et al. (2025)

Assay: soluble fraction after stress (log2 fold change); higher = more stays soluble; pooled small domains, quantitative proteomics
Details: stress: 75 degC
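Further: 20 min heating vs room temperature control held 20 min.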

| Sequence | soluble fraction (log2) |
| --- | --- |
| HMGEIVVPDLIGKSLTEATRILSDSTLTVGKVNYQISSTLLPNTVLDQYPAPGNKLNSGNTVDLFITKE | 0.068 |
| HMGEKTLSEKVYDRLKELIMDGELERGTKITETSIAKMFDVSPTPVREAFRKLASDGLIEVASWKGVIVKG | -0.378 |
| HMGELYGTDQYKDGDAQDTNIGKLLEVNIDGKWQVATTGTSRFEFAGVMDDNGHKLIMISVLPEAKTV | 0.0596 |
| HMGEPLSPDARALTNVLRHYRGWAEPGELARKSGLGSRERVLTAAQSLVNAGLADIERGMVRPTAALMEVQ | 0.0619 |
| HMGEPVASSREVAKRFGKEHKHVLAAIRQILVAENSATKFFHETAFEYRGQRFPEYLMNRDGFALLAMGF | -3.15 |
| HMGEPVNSPMPGTILRVEVTQGAAVKEGQLLVVLEAMKMENEILAPKDGTVAQVVVQKGSHVETGSPLIVL | -0.508 |
| HMGEQLALLERARTLLEDETLETEVQKELEMLLEDIEAARAEANATQLEDLFEELADLLFDLE | 0.316 |
| HMGEQYYVLIDNKQNGPHNINAIQKMIDQNIVNRQTLIWKKGMTDWGNIMDDKDLKEMVNKIP | 0.111 |
| HMGERMELTLDNPREAIPVLDAMGFANYQVVDKEHIHIFERLNESALVNMELAKAGIPVKGISITSE | 0.0918 |
| HMGESEWIVKWRGEKRDEERLQESELVRDDPEHRISVVRPRDDVDASAWLNRWRKSRYVQYIQPNHRVTIS | 0.568 |
| HMGESFPYVAYATDSVRLRARPSSSATILTVIRKGDAVLITGADGSYKIVEYEGRKGYVVSAFLSSQET | -2.51 |
| HMGESVQVPSYVGMGFREAARKARARDFGVAVSDSIYVPGKPPGEIIAQDPKAESRVKEGRTIYFTVAK | -0.109 |
| HMGETAFRYALPLDQGEALKRSHVIRQSISPDDALATRVTVLEDVLDQTLRQPVQAGEVLLEDHFTR | -0.0825 |
| HMGETRWTYDDFGNILTEKAAPYSATEFLGKTYTYDTDNRYLKTVTDALGRTTTTLSYDKYGNPLSVMD | 0.115 |
| HMGETWYEILEISSDATTEEIRQAYFEQARQYHPDTNPGELAREWFYQVQEAYETLSDPDRRRQYDESIKG | -0.0285 |
| HMGEVEVPDLVGIEAIQAKTLLFNSDFLIKEFYDYDPTQPIGVVIRQAPEAGTTQTIGDSVTITINRA | -0.334 |
| HMGEVISRSYPLLKTKAKPAEVSEALQKLIKAPATVTFDEKNEVFHINATRLQHTWAEGYFKGLHGK | -0.14 |
| HMGEVPPGWSVEALAAIERDLAHHVGPVARVLVQRGARLHTTTDDLRSALANAITDDLARRRFMQP | -0.575 |
| HMGFEALRSRHRITAREMEVLQHMLAGRSNAEIGHTLGLSERTVKTHITSIFNKLGVDSRAQLGYMLK | -1.87 |
| HMGFLTKTQRLEILLHLKDEPYYNVEKLKELIKNRYGIVYQSSQSYYDLLKEAGLSWHQTQA | -2.33 |
| HMGFVTVTEVDTTADLKLARVYVSVLGPEEQWAKSFTALESARGFVWNWLRKHLDLRVTPQLAF | -1.08 |
| HMGGASVTDQQIRDFVSAHTDDPMAIYKAAVANGISSARLAQVTGISIADIEAFVRKNNLPSF | -0.0535 |
| HMGGEEINMINLVGLSQSEAENQLAKLKLKIGQVTAEYSDKPSGTVLKQSISANNKVKKGADIDIVVSKG | -0.0126 |
| HMGGELLSLRRIGTLTGISYPTLLRYVARYGEQIPQTGTGRSRRFPPAAVPVFQELRATRGRAPRATA | -0.104 |
| HMGGEPKALLFAGVETREMAEITQRLEAADIPYEIREDGGSIYVARSEVFNARMMLSADGLPS | -0.455 |
| HMGGFNATTLQNIEELRRSLSDADQFGRHEVIETIGGSDSRAGKLLKKMLEAGIIEQVKGHGKGRYRFKRT | 0.0983 |
| HMGGGEYTVAKGDTLWKIAAQTLGSPTRYAEIYNLNKDVIEETARGRGKRDSSNGHWLFPGTALKIPGT | 0.421 |
